# Patent US20250304640A1 (ORIKINE BIO SL, published 2025)
# T1: IL-10 receptor (IL-10R: IL10RA and IL10RB) on HEK-Blue IL-10 reporter cells (UniProt Q13651 22-578; Q08334 20-325, limits assumed)
# T1 sequence (looked up) 1: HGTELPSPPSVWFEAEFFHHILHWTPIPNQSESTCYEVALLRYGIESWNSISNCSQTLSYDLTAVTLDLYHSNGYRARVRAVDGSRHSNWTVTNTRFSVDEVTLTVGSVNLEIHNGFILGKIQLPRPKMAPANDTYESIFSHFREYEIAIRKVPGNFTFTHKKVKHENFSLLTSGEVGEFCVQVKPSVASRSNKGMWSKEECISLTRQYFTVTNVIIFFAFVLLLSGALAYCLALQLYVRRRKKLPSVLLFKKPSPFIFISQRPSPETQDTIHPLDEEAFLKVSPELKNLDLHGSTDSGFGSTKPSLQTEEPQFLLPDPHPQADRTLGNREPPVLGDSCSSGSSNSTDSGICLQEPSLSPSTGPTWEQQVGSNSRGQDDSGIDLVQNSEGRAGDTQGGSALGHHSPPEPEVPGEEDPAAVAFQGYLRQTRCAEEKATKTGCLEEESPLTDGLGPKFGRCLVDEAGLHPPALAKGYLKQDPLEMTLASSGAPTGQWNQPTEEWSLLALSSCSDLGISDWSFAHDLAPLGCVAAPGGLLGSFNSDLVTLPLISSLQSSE
# T1 sequence (looked up) 2: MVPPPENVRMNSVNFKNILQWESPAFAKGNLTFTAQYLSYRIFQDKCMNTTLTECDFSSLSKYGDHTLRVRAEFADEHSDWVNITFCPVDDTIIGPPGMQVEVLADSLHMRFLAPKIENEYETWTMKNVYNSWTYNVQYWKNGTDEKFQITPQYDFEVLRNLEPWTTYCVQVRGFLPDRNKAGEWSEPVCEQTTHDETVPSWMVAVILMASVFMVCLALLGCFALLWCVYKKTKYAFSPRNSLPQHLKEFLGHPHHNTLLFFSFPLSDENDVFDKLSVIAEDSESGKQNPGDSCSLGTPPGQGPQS
# B1: IL-10WT (wild-type human IL-10) (ligand)
# chain: SPGQGTQSENSCTHFPGNLPNMLRDLRDAFSRVKTFFQMKDQLDNLLLKESLLEDFKGYLGCQALSEMIQFYLEEVMPQAENQDPDIKAHVNSLGENLKTLRLRLRRCHRFLPCENKSKAVEQVKNAFNKLQEKGIYKAMSEFDIFINYIEAYMTMKIRN
# B2: CSF1-25AA-Foldikine10-HiBit (ligand)
# chain: EEVSEYCSHMIGSGHLQSLQRLIDSQMETSCQITFEFVDQEQLKDPVCYLKKAFLLVQDIMEDTMRFRDNTPNAIAIVQLQELSLRLKSCFTKDYEEHDKACVRTFYETPLQLLEKVKNVFNETKNLLDKDWNIFSKNCNNSFAECSSQDGGGGGSGGSGGSGGSGGSGGSGGSGGSGGGMTQSENSCTHFPGNLPNMLRDLRDAFSRVKTFFQMKDQLDNLLLKESLLEDFKGYLGCQALSEMIQFYLEEVMPQAENQEPDIKAHVNSLGENLKTLRLRLRRCHRFLPCENKSKAVEQVKNAFNKLQEKGIYKAMSEFDIFINYIEAYMTMNNGGLDYLPNMLRDLRDAFSRVKTFFQMKDQLDNLLLKESLLEDFKGYLGCQALSEMIQFYLEEVMPQAENQDPDIKAHVNSLGENLKTLRLRLRRNHRFLPCENKSKAVEQVKNAFNKLQEKGIYKAMSEFDIFINYIEAYMTMKIRNGGVSGWRLFKKIS
# B3: foldikine10-HiBit (ligand)
# chain: MTQSENSCTHFPGNLPNMLRDLRDAFSRVKTFFQMKDQLDNLLLKESLLEDFKGYLGCQALSEMIQFYLEEVMPQAENQEPDIKAHVNSLGENLKTLRLRLRRCHRFLPCENKSKAVEQVKNAFNKLQEKGIYKAMSEFDIFINYIEAYMTMNNGGLDYLPNMLRDLRDAFSRVKTFFQMKDQLDNLLLKESLLEDFKGYLGCQALSEMIQFYLEEVMPQAENQDPDIKAHVNSLGENLKTLRLRLRRNHRFLPCENKSKAVEQVKNAFNKLQEKGIYKAMSEFDIFINYIEAYMTMKIRNGGVSGWRLFKKIS
# B4: Foldikine10 (ligand)
# chain: MTQSENSCTHFPGNLPNMLRDLRDAFSRVKTFFQMKDQLDNLLLKESLLEDFKGYLGCQALSEMIQFYLEEVMPQAENQEPDIKAHVNSLGENLKTLRLRLRRCHRFLPCENKSKAVEQVKNAFNKLQEKGIYKAMSEFDIFINYIEAYMTMNNGGLDYLPNMLRDLRDAFSRVKTFFQMKDQLDNLLLKESLLEDFKGYLGCQALSEMIQFYLEEVMPQAENQDPDIKAHVNSLGENLKTLRLRLRRNHRFLPCENKSKAVEQVKNAFNKLQEKGIYKAMSEFDIFINYIEAYMTMKIRN
# B5: CSF1-25AA-IL10-HiBit (ligand)
# chain: EEVSEYCSHMIGSGHLQSLQRLIDSQMETSCQITFEFVDQEQLKDPVCYLKKAFLLVQDIMEDTMRFRDNTPNAIAIVQLQELSLRLKSCFTKDYEEHDKACVRTFYETPLQLLEKVKNVFNETKNLLDKDWNIFSKNCNNSFAECSSQDGGGSGGSGGSGGSGGSGGSGGSGGGRASPGQGTQSENSCTHFPGNLPNMLRDLRDAFSRVKTFFQMKDQLDNLLLKESLLEDFKGYLGCQALSEMIQFYLEEVMPQAENQDPDIKAHVNSLGENLKTLRLRLRRCHRFLPCENKSKAVEQVKNAFNKLQEKGIYKAMSEFDIFINYIEAYMTMKIRNGGVSGWRLFKKIS
# B6: IL10-HiBit (ligand)
# chain: SPGQGTQSENSCTHFPGNLPNMLRDLRDAFSRVKTFFQMKDQLDNLLLKESLLEDFKGYLGCQALSEMIQFYLEEVMPQAENQDPDIKAHVNSLGENLKTLRLRLRRCHRFLPCENKSKAVEQVKNAFNKLQEKGIYKAMSEFDIFINYIEAYMTMKIRNGGVSGWRLFKKIS
# B7: CSF1-30AA-IL10-HiBit (ligand)
# chain: EEVSEYCSHMIGSGHLQSLQRLIDSQMETSCQITFEFVDQEQLKDPVCYLKKAFLLVQDIMEDTMRFRDNTPNAIAIVQLQELSLRLKSCFTKDYEEHDKACVRTFYETPLQLLEKVKNVFNETKNLLDKDWNIFSKNCNNSFAECSSQDGGGGGSGGSGGSGGSGGSGGSGGSGGSGGGRASPGQGTQSENSCTHFPGNLPNMLRDLRDAFSRVKTFFQMKDQLDNLLLKESLLEDFKGYLGCQALSEMIQFYLEEVMPQAENQDPDIKAHVNSLGENLKTLRLRLRRCHRFLPCENKSKAVEQVKNAFNKLQEKGIYKAMSEFDIFINYIEAYMTMKIRNGGVSGWRLFKKIS
# B8: CSF1-35AA-IL10-HiBit (ligand)
# chain: EEVSEYCSHMIGSGHLQSLQRLIDSQMETSCQITFEFVDQEQLKDPVCYLKKAFLLVQDIMEDTMRFRDNTPNAIAIVQLQELSLRLKSCFTKDYEEHDKACVRTFYETPLQLLEKVKNVFNETKNLLDKDWNIFSKNCNNSFAECSSQDGGGGGSGGGGSGGSGGSGGSGGSGGSGGSGGSGGGRASPGQGTQSENSCTHFPGNLPNMLRDLRDAFSRVKTFFQMKDQLDNLLLKESLLEDFKGYLGCQALSEMIQFYLEEVMPQAENQDPDIKAHVNSLGENLKTLRLRLRRCHRFLPCENKSKAVEQVKNAFNKLQEKGIYKAMSEFDIFINYIEAYMTMKIRNGGVSGWRLFKKIS
# B9: ORK10-002 (ligand)
# chain: MTQSENSCTHFPGNLPNMLRDLRDAFSRVKTFFQMKDQLDNLLLKESLLEDFKGYLGCQALSEMIQFYLEEVMPQAENQDPDIKAHVNSLGENLKTLRLRLRRCHRFLPCENKSKAVEQVKNAFNKLQEKGIYKAMSEFDIFINYIEAYMTMNFGGLDYLPNMLRDLRDAFSRVKTFFQMKDQLDNLLLKESLLEDFKGYLGCQALSEMIQFYLEEVMPQAENQDPDIKAHVNSLGENLKTLRLRLRRCHRFLPCENKSKAVEQVKNAFNKLQEKGIYKAMSEFDIFINYIEAYMTM
# B10: CSF1-15AA-Foldikine10-HiBit (ligand)
# chain: EEVSEYCSHMIGSGHLQSLQRLIDSQMETSCQITFEFVDQEQLKDPVCYLKKAFLLVQDIMEDTMRFRDNTPNAIAIVQLQELSLRLKSCFTKDYEEHDKACVRTFYETPLQLLEKVKNVFNETKNLLDKDWNIFSKNCNNSFAECSSQDGGSGGSGGSGGSGGGMTQSENSCTHFPGNLPNMLRDLRDAFSRVKTFFQMKDQLDNLLLKESLLEDFKGYLGCQALSEMIQFYLEEVMPQAENQEPDIKAHVNSLGENLKTLRLRLRRCHRFLPCENKSKAVEQVKNAFNKLQEKGIYKAMSEFDIFINYIEAYMTMNNGGLDYLPNMLRDLRDAFSRVKTFFQMKDQLDNLLLKESLLEDFKGYLGCQALSEMIQFYLEEVMPQAENQDPDIKAHVNSLGENLKTLRLRLRRNHRFLPCENKSKAVEQVKNAFNKLQEKGIYKAMSEFDIFINYIEAYMTMKIRNGGVSGWRLFKKIS
# B11: ORK10-005 (ligand)
# chain: MTQSENSCTHFPGNLPNMLRDLRDAFSRVKTFFQMKDQLDNLLLKESLLEDFKGYLGCQALSEMIQFYLEEVMPQAENQDPDIKAHVNSLGENLKTLRLRLRRCHRFLPCENKSKAVEQVKNAFNKLQEKGIYKAMSEFDIFINYIEAKDKDIRDGDELANMLRDLRDAFSRVKTFFQMKDQLDNLLLKESLLEDFKGYLGCQALSEMIQFYLEEVMPQAENQDPDIKAHVNSLGENLKTLRLRLRRCHRFLPCENKSKAVEQVKNAFNKLQEKGIYKAMSEFDIFINYIEAYMTM
# B12: ORK10-003 (ligand)
# chain: MTQSENSCTHFPGNLPNMLRDLRDAFSRVKTFFQMKDQLDNLLLKESLLEDFKGYLGCQALSEMIQFYLEEVMPQAENQDPDIKAHVNSLGENLKTLRLRLRRCHRFLPCENKSKAVEQVKNAFNKLQEKGIYKAMSEFDIFINYIEAYLYKTITPEFANMLRDLRDAFSRVKTFFQMKDQLDNLLLKESLLEDFKGYLGCQALSEMIQFYLEEVMPQAENQDPDIKAHVNSLGENLKTLRLRLRRCHRFLPCENKSKAVEQVKNAFNKLQEKGIYKAMSEFDIFINYIEAYMTM
# Key:
# Test in all cases: cell-based or functional assay
# [1] = target: T1, IL-10 receptor (IL-10R: IL10RA and …)
# CSF1 receptor (CSF1R) = CSF1 receptor (CSF1R) (UniProt P07333 20-972, limits assumed)
# [2] = target: T1, IL-10 receptor (IL-10R: IL10RA and …); remark: listed apart in the source
# [3] = target: T1, IL-10 receptor (IL-10R: IL10RA and …); remark: listed apart in the source
# Sequence of CSF1 receptor (CSF1R) (P07333 20-972 limits assumed): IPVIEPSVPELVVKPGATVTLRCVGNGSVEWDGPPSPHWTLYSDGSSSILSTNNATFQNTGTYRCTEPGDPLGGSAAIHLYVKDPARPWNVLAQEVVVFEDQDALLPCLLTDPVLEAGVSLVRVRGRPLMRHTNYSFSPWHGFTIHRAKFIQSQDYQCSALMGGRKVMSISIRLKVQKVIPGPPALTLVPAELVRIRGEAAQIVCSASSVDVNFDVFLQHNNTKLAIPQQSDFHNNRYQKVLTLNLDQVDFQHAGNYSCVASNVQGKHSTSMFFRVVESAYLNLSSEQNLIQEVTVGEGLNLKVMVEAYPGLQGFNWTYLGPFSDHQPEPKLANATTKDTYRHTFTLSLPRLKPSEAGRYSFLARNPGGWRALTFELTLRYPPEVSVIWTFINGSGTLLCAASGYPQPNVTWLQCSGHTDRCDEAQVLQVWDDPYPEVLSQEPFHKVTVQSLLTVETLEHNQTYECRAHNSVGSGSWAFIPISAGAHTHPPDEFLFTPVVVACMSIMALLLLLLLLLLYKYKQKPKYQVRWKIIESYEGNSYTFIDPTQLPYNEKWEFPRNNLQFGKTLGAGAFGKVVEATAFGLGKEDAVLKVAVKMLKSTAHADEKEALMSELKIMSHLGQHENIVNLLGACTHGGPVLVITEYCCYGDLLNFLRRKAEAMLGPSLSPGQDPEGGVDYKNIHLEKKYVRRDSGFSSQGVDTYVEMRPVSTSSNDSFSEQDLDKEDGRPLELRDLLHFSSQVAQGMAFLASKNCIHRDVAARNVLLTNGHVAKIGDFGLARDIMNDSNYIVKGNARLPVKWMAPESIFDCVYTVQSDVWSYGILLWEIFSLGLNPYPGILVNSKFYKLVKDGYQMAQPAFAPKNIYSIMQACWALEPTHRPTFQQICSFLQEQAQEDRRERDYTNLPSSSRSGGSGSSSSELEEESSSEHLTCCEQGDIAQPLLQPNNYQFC
"EC-50, HEK-Blue IL-10 reporter cells [1]","EC-50 for CSF1 activity, HEK293 CSF1R/SRE reporter (CSF1 receptor (CSF1R))","EC-50 for IL10 activity, HEK-Blue IL-10 reporter cells [2]",also measured,Binder
8.91e-10,,,,B1
,1.64e-09,3.61e-10,,B2
,,,"IL-10 EC-50, HEK-Blue IL-10 reporter cells [3]: 2.14e-10",B3
6.01e-10,,,,B4
,,4.1e-10,,B5
,,,"IL-10 EC-50, HEK-Blue IL-10 reporter cells [3]: 8e-10",B6
,5.5e-10,2.35e-10,,B7
,6.5e-10,1.9e-10,,B8
3.87e-10,,,,B9
,1.19e-09,2.6e-10,,B10
6.25e-10,,,,B11
2.3e-10,,,,B12
